Experimental data taken from patent US20250145723A1 (MINGHUI PHARMACEUTICAL HANGZHOU, published 2025).

Columns and labels:
[1] = target: T1, recombinant human IGF-1R-his (human, UniProt P08069 31-932); test: competition ELISA, coated hIGF-1R-his, competitor biotinylated IGF-1
T1 construct: Recombinant his-tagged protein; also called hIGF-1R-his; hIGF1R-his; not shown: his tag
Method: Recombinant human IGF1R-his antigen (5 μg/mL) was added to a 96-well plate for coating overnight at 4° C. The plate was washed 4 times with 1×TBST, and then was blocked with 2% BSA at room temperature for 1.5 h. The plate was washed four times with 1×TBST, and 50 μL of nanobody-Fc fusion proteins of different concentrations (with a starting concentration of 10 μg/mL, 2-fold serially diluted) and 50 μL of biotinylated IGF-1 ([…]) were added to the antigen-coated 96-well plate and incubated at 37° C. for 1 h. The plate was washed 4 times with 1×TBST, horseradish peroxidase-labeled Streptavidin (Thermo, 21126) was added and incubated at 37° C. for 1 h, and the plate was washed 4 times with 1×TBST. TMB substrate solution was added at 200 μL per well for color development in the dark for 20 min, 50 μL of 1 M H₂SO₄ was added to terminate the reaction, and the OD₄₅₀ was read using a microplate reader. A curve was fit and the IC₅₀ value was calculated using Graphpad Prism software.

[2] = target: T2, recombinant mouse IGF-1R-his (mouse, UniProt Q60751 31-933); test: ELISA, coated antigen 5 µg/mL
T2 construct: not shown: his tag
Method: (§1) Recombinant human, monkey and mouse IGF-1R-his antigens and human insulin receptor proteins (5 μg/mL) were added to a 96-well plate for coating overnight at 4° C. The plate was washed with PBS, and then was blocked with 1% casein at room temperature for 1 h. The nanobody-Fc fusion proteins were diluted to 2 μg/mL with 0.1% BSA/PBS, added to the antigen-coated 96-well plate, and incubated at room temperature for 1 hour. The plate was washed three times with 0.1% PBST, horseradish peroxidase-labeled anti-human Fc tag antibodies (anti-human IgG-HRP, Abcam ab6759, 1:5,000, containing 1% casein) were added and incubated at room temperature for 30 min, and the plate was washed three times with 0.1% PBST. A TMB substrate solution (Thermo, 34028) was added for color development, and the OD₄₅₀ was read using a microplate reader.

[3] = target: T3, human insulin receptor protein (human, UniProt P06213-2 28-944, limits assumed); test: ELISA, coated antigen 5 µg/mL
T3 construct: also called human insulin receptor proteins
Method: as §1

T3 sequence (P06213 other isoform, or with tags, fused parts or gaps limits assumed): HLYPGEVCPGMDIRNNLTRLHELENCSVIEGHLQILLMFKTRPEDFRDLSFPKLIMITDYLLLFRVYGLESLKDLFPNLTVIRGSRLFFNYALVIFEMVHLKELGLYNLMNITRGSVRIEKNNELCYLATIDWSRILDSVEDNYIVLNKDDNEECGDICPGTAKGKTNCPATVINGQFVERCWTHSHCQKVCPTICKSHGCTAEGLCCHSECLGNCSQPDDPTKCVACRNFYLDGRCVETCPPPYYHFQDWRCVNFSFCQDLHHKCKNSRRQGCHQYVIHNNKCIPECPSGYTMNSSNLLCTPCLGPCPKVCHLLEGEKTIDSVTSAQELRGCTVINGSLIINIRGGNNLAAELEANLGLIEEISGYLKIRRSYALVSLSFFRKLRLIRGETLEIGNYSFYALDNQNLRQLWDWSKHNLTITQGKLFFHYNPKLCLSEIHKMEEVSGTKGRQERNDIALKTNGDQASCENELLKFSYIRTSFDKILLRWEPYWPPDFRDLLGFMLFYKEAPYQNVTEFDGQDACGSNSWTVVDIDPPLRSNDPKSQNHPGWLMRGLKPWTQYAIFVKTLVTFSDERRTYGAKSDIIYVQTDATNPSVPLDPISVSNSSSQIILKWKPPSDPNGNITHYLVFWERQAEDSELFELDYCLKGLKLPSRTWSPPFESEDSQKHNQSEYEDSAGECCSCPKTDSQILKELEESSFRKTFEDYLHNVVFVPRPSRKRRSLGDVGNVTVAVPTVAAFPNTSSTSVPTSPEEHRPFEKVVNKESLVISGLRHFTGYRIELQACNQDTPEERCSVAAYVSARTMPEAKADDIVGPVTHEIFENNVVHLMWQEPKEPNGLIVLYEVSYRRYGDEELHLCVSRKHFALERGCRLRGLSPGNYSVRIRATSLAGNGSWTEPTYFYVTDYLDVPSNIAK
T2 sequence (Q60751 31-933 limits assumed): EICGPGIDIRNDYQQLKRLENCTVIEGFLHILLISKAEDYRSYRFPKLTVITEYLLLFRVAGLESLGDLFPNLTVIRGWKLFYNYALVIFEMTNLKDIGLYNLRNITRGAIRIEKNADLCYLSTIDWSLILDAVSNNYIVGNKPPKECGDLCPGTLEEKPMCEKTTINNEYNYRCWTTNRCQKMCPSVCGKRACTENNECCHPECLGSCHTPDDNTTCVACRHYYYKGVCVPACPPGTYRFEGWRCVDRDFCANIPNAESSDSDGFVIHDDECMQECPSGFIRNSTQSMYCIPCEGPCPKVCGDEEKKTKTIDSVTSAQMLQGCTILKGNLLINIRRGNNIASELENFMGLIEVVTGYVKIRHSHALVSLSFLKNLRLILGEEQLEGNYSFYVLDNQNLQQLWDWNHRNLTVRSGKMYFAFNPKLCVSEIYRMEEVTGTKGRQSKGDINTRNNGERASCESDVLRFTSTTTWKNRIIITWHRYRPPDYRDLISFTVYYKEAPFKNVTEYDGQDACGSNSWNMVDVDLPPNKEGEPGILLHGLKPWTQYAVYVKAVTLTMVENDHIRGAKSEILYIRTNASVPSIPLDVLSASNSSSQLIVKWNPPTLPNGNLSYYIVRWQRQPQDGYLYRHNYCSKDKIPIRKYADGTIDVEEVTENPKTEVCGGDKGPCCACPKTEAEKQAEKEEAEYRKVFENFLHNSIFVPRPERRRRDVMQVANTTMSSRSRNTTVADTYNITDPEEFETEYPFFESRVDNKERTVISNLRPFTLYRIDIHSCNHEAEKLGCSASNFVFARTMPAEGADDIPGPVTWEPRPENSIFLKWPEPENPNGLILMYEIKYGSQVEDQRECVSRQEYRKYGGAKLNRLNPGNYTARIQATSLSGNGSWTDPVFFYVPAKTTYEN
T1 sequence (P08069 31-932 limits assumed): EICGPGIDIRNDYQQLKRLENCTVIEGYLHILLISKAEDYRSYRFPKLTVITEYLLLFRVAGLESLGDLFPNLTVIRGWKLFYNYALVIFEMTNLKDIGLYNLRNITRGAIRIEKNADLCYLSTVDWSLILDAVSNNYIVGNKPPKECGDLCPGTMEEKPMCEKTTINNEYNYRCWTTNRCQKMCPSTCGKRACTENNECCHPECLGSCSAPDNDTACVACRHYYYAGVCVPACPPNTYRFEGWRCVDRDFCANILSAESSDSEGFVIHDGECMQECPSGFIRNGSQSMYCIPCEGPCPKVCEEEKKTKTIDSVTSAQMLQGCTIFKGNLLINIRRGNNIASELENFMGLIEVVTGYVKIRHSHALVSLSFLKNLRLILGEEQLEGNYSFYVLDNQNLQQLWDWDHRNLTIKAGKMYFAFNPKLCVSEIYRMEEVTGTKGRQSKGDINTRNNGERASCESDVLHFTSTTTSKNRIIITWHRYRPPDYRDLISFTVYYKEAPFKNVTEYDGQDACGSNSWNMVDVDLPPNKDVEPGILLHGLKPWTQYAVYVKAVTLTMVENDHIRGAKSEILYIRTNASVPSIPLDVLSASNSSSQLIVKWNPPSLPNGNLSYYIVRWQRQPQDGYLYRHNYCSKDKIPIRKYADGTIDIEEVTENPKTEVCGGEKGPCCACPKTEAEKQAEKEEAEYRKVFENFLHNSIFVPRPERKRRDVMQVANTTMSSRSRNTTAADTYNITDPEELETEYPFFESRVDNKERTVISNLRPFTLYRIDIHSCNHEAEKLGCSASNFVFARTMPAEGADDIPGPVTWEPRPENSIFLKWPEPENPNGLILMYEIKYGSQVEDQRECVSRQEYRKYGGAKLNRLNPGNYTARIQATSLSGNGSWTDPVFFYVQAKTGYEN

B1: 5115-Fc fusion protein (Fc fusion)
VHH: EVQLVESGGGLVQAGGSLRLSCAVSGRTFSSFVMGWFRQAPGKEREFVAAISGSGSRANYADSVKGRFTVSRDNANNTVYLQMNSLKPDDTALYYCAANPRRATPDYTQYAYWGQGTQVTVSS
notes: C-terminus of the VHH linked to the N-terminus of human Fc; not shown: The human Fc segment; Any hinge or linker is also unstated
B1 was tested, and the IC50 [1] was 0.435 µg/mL, the binding result [2] was “no binding (tested: 2 µg/mL)” and the binding result [3] was “no binding (tested: 2 µg/mL)”.
